Results published in US20140017234A1.
Values joined by “and” are separate entries in the source; they are usually repeats but may differ in a detail not shown here. Equal values may be shown once. Read-outs that look alike come from different tables or passages of the source.

Columns and labels:
[1] = target: clade A/E 93TH057-derived gp120 core (HIV-1 clade A/E strain 93TH057)
[2] = target: HIV-1 YU-2 Env (gp120) mutant A281S (HIV-1 strain YU-2) (UniProt P35961)
[3] = target: HIV-1 YU-2 Env (gp120) mutant T278A (HIV-1 strain YU-2) (UniProt P35961)
[4] = target: HIV-1 YU-2 Env (gp120) mutant N276S (HIV-1 strain YU-2) (UniProt P35961)
[5] = target: HIV-1 YU-2 Env (gp120) mutant N280Y (HIV-1 strain YU-2) (UniProt P35961)
[6] = target: HIV-1 YU-2 Env (gp120) mutant N280D (HIV-1 strain YU-2) (UniProt P35961)
[7] = target: HIV-1 YU-2 Env (gp120) mutant N280Y (HIV-1 strain YU-2) (UniProt P35961); remark: listed apart in the source
[8] = target: YU-2^N279H (HIV-1)
[9] = target: HIV-1 YU-2 Env (gp120) mutant A281T (HIV-1 strain YU-2) (UniProt P35961)
[10] = target: HIV-1 YU-2 Env (gp120) mutant A281T (HIV-1 strain YU-2) (UniProt P35961); test: cell-based or functional assay
[11] = target: HIV-1 YU-2 Env (gp120) mutant N279K (HIV-1 strain YU-2) (UniProt P35961)
[12] = target: HIV-1 YU-2 Env (gp120) mutant N279K (HIV-1 strain YU-2) (UniProt P35961); remark: listed apart in the source
[13] = target: YU-2^R456W (HIV-1)
[14] = target: HIV-1 YU-2 Env (gp120) mutant N280D (HIV-1 strain YU-2) (UniProt P35961); remark: listed apart in the source

Substance	Kd [1]	IC50 (pseudovirus neutralization) [3]	IC50 (pseudovirus neutralization) [4]	IC50 (pseudovirus neutralization, TZM-bl cells) [6]	IC50 (pseudovirus neutralization, TZM-bl cells) [8]	IC50 (pseudovirus neutralization, TZM-bl cells), first of the two values given [9]	IC50 (pseudovirus neutralization, TZM-bl cells), second of the two values given [9]	IC50 (pseudovirus neutralization, TZM-bl cells) [11]	IC50 (pseudovirus neutralization, TZM-bl cells) [12]	further results
45-46m2 Fab (NIH45-46 with G54W in the heavy chain and S28Y in the light chain)	0.051 µM and 0.057 µM									
45-46m2 IgG (NIH45-46 with G54W in the heavy chain and S28Y in the light chain) (antibody)		0.001 µg/mL	0.006 µg/mL	0.435 µg/mL	0.452 µg/mL	0.1 µg/mL	> 50 µg/mL			IC50 (read off the curve) [2]: 0.01 µg/mL; IC50 (pseudovirus neutralization, TZM-bl cells) [5]: 2.23 µg/mL; IC50 (pseudovirus neutralization, TZM-bl cells) [7]: 2.23 µg/mL; plateau of the in vitro neutralization curve [10]: 50%
45-46m7 IgG (45-46m2 + HC W47V) (antibody)		0.001 µg/mL	0.003 µg/mL	0.139 µg/mL	0.245 µg/mL	0.1 µg/mL	> 50 µg/mL	2.41 µg/mL	2.41 µg/mL	IC50 (read off the curve) [2]: 0.01 µg/mL; plateau of the in vitro neutralization curve [10]: 50%
45-46m25 IgG (45-46m2 + HC W47I) (antibody)				0.19 µg/mL		0.1 µg/mL	> 50 µg/mL	2.59 µg/mL		
45-46m28 IgG (45-46m2 + HC W47T) (antibody)						0.1 µg/mL	> 50 µg/mL	0.652 µg/mL	0.65 µg/mL	
NIH45-46 Fab	0.221 µM and 0.178 µM									
NIH45-46^G54W Fab	0.062 µM and 0.072 µM									
NIH45-46^G54W IgG (antibody)		0.001 µg/mL	0.004 µg/mL		> 50 µg/mL	0.1 µg/mL	> 50 µg/mL		> 50 µg/mL	IC50 (pseudovirus neutralization, TZM-bl cells) [7]: > 50 µg/mL; IC50 (pseudovirus neutralization, TZM-bl cells) [13]: 5.67 µg/mL; IC50 (pseudovirus neutralization, TZM-bl cells) [14]: > 50 µg/mL
